Here are results for 1 substance from US20170340748A1.

The target of experiment [1] is T47D cells (human) (UniProt P15328). The experiment is described as follows: flow cytometry binding on T47D cells. In general terms: A flow cytometer gives signals particle by particle.
The target is the same in experiment [2]. The experiment can be described thus: flow cytometry binding on T47D cells. The source holds these as a separate data set.

Read-outs that look alike come from different tables or passages of the source.

T47D cells (human), sequence (P15328 25-234, stated change not applied): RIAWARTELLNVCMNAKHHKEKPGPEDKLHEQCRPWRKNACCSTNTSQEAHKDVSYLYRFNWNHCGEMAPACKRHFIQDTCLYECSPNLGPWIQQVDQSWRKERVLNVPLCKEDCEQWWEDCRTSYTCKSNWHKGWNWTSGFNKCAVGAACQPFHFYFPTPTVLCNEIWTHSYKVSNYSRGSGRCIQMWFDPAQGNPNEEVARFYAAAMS

The term EC50 denotes the concentration at which the effect is half-maximal. Read a high EC50 as a need for much substance. For the substance huMOV19, the 50% effective concentration (EC50) with T47D cells (human) [1] was 0.314 nM; with T47D cells (human) [2], 0.144 nM.
